Measurements as given in patent publication US20190008977A1 (ASCENDIS PHARMA GROWTH DISORDERS A S, published 2019).
Bridge positions count the residues as written; N and C are the ends. Side chains are listed from the residue outwards. Ends that are not written are not given here. * marks the point of attachment. Hexanoyl(6-maleimido) = O=C1C=CC(=O)N1CCCCCC(=O)*; reversible prodrug linker = not defined here

Tests used:
[1] = target: T1, permanent N-terminal CNP-38 PEG 5 kDa conjugate 15e
T1 chain: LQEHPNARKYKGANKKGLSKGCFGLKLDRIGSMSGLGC

[2] = target: T2, permanent N-terminal CNP-34 PEG 5 kDa conjugate 14e
T2 chain: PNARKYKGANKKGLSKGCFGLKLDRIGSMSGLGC

[3] = target: T3, permanent Lys26 CNP-38 PEG4x10 kDa conjugate 12g
T3 chain: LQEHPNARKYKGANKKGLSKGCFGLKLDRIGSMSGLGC

[4] = target: T4, NPR-B expressed endogenously on NIH-3T3 cells (Murine Embryo Fibroblast cell line) (mouse (endogenous in the murine NIH-3T3 …, UniProt Q6VVW5 17-1047)); test: cell-based or functional assay
T4 sequence (looked up): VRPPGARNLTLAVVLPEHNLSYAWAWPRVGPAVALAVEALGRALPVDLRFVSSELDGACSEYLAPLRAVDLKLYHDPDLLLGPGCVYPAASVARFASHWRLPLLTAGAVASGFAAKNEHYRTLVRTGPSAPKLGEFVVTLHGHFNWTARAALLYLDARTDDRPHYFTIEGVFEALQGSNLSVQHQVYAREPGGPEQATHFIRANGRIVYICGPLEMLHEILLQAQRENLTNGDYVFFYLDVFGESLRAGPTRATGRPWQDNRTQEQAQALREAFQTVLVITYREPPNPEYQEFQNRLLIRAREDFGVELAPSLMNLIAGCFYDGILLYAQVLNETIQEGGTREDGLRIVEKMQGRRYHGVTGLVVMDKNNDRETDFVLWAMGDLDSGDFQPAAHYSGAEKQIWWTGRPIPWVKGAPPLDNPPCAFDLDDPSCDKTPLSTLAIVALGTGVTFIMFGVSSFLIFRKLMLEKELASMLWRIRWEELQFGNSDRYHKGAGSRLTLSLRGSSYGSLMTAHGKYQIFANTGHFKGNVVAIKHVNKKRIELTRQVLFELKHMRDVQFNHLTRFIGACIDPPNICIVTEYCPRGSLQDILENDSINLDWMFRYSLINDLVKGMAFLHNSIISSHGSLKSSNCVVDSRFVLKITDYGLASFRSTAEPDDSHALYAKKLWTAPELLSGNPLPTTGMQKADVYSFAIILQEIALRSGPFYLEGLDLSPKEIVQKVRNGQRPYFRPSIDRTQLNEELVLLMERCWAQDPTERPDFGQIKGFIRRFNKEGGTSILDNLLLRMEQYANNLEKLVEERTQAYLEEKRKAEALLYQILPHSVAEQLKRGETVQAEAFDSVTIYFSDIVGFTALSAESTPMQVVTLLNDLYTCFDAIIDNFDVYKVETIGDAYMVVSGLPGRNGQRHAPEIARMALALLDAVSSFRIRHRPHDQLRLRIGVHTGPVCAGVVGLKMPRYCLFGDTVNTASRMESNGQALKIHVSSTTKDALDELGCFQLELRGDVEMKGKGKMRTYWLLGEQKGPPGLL

[5] = target: T4, NPR-B expressed endogenously on NIH-3T3 …; test: cell-based or functional assay; remark: listed apart in the source

Binder | EC50 compound/EC50 CNP-38 (cGMP stimulation in NIH-3T3 cells, residual NPR-B activity) [4] | other results
recombinant human Neutral Endopeptidase (NEP) (protein) YDDGICKSSDCIKSAARLIQNMDATTEPCTDFFKYACGGWLKRNVIPETSSRYGNFDILRDELEVVLKDVLQEPKTEDIVAVQKAKALYRSCINESAIDSRGGEPLLKLLPDIYGWPVATENWEQKYGASWTAEKAIAQLNSKYGKKVLINLFVGTDDKNSVNHVIHIDQPRLGLPSRDYYECTGIYKEACTAYVDFMISVARLIRQEERLPIDENQLALEMNKVMELEKEIANATAKPEDRNDPMLLYNKMTLAQIQNNFSLEINGKPFSWLNFTNEIMSTVNISITNEEDVVVYAPEYLTKLKPILTKYSARDLQNLMSWRFIMDLVSSLSRTYKESRNAFRKALYGTTSETATWRRCANYVNGNMENAVGRLYVEAAFAGESKHVVEDLIAQIREVFIQTLDDLTWMDAETKKRAEEKALAIKERIGYPDDIVSNDNKLNNEYLELNYKEDEYFENIIQNLKFSQSKQLKKLREKVDKDEWISGAAVVNAFYSSGRNQIVFPAGILQPPFFSAQQSNSLNYGGIGMVIGHEITHGFDDNGRNFNKDGDLVDWWTQQSASNFKEQSQCMVYQYGNFSWDLAGGQHLNGINTLGENIADNGGLGQAYRAYQNYIKKNGEEKLLPGLDLNHKQLFFLNFAQVWCGTYRPEYAVNSIKTDVHSPGNFRIIGTLQNSAEFSEAFHCRKNSYMNPEKKCRVW | – | half life norm. [h] (in vitro NEP cleavage assay) [1]: Almost no proteolysis after 4 days.; half life norm. [h] (in vitro NEP cleavage assay) [2]: Almost no proteolysis after 4 days.; half life norm. [h] (in vitro NEP cleavage assay) [3]: Almost no proteolysis after 4 days.
LQEHPNARKYKGANKKGLSKGCFGLK([reversible prodrug linker-branched PEG 2x20 kDa])LDRIGSMSGLGC (disulfide 22-38; reading uncertain) [reversible Lys26 CNP-38 PEG2x20 kDa conjugate 10f] | > 100 ratio | –
LQEHPNARKYKGANKKGLSKGCFGLK([reversible prodrug linker-branched PEG 4x10 kDa])LDRIGSMSGLGC (disulfide 22-38; reading uncertain) [reversible Lys26 CNP-38 PEG4x10 kDa conjugate 11i] | > 100 ratio | –
{PEG 5 kDa-Hexanoyl(6-maleimido)}-LQEHPNARKYKGANKKGLSKGCFGLKLDRIGSMSGLGC (disulfide 22-38) [permanent N-terminal CNP-38 PEG 5 kDa conjugate 15e] | > 5 ratio | –
LQEHPNARKYKGANKKGLSKGCFGLKLDRIGSMSGLGC (5 kDa PEG stably attached through a maleimidohexanoyl group at the side chain of Lys26 (ring lysine); disulfide Cys22-Cys38) [permanent Lys26 CNP-38 PEG 5 kDa conjugate 19e] | > 100 ratio | –
LQEHPNARKYKGANKKGLSKGCFGLKLDRIGSMSGLGC (disulfide 22-38) [Released CNP-38 (isolated by RP-HPLC after 7 d incubation of 11i under physiological conditions)] | – | EC50 compound/EC50 CNP-38 (cGMP stimulation in NIH-3T3 cells) [5]: 1 ratio
LQEHPNARKYKGANKKGLSKGCFGLK(branched PEG 4x10 kDa)LDRIGSMSGLGC (disulfide 22-38) [permanent Lys26 CNP-38 PEG4x10 kDa conjugate 12g] | > 100 ratio | –
